Laboratory results from PMC3734285, “Expression and Function of the Lipocalin-2 (24p3/NGAL) Receptor in Rodent and Human Intestinal Epithelia” (PLoS ONE, 2013).
pEC50, pKd: −log10 of the molar value. One block for each substance: values may come before it.

Legend:
[1] = biological target: human lipocalin-2/NGAL receptor (hNGAL-R) (human (endogenous in Caco-2 BBE)) (UniProt Q8WUG5)
[2] = biological target: human lipocalin-2/NGAL receptor (hNGAL-R) (human (endogenous in Caco-2 BBE)) (UniProt Q8WUG5); remark: listed apart in the source
[3] = biological target: human lipocalin-2/NGAL receptor (hNGAL-R) (human (endogenous in Caco-2 BBE)) (UniProt Q8WUG5); test: MST; as a1 but co-incubated with 500 pM hNGAL as a binding competitor to A488-PC3
[4] = biological target: human lipocalin-2/NGAL receptor (hNGAL-R) (human (endogenous in Caco-2 BBE)) (UniProt Q8WUG5); test: MST; fixed amounts of colon-like Caco-2 BBE plasma membrane vesicles pre-incubated 5 min at room temperature with varying A488-PC3 (10-1000 nM); 50 mM Tris pH 7.4, 150 mM NaCl, 10 mM MgCl2, 0.05% Tween-20; Hill fit with coefficient 1.0
hNGAL-R (Homo sapiens) = hNGAL-R (Homo sapiens) (UniProt Q8WUG5); conditions: cited from earlier work
hNGAL-R (Homo sapiens), sequence (Q8WUG5 whole entry): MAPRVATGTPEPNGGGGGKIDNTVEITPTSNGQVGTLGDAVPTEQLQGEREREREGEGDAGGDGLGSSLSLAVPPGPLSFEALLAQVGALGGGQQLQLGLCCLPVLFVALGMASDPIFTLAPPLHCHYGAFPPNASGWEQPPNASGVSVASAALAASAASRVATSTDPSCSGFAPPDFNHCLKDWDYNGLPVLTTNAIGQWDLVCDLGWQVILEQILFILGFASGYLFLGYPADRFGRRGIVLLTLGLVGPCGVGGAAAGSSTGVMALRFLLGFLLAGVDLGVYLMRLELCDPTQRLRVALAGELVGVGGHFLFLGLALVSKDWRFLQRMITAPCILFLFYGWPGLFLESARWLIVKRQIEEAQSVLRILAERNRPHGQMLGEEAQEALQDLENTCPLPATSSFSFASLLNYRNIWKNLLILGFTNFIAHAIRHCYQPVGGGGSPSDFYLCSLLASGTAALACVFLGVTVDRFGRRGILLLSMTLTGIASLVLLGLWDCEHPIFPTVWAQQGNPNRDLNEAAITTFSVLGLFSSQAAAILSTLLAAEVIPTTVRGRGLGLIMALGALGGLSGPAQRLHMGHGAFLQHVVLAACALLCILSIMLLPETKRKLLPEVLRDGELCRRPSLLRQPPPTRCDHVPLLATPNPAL

human lipocalin-2/NGAL receptor (hNGAL-R) (human (endogenous in Caco-2 BBE)), sequence (Q8WUG5 112-649): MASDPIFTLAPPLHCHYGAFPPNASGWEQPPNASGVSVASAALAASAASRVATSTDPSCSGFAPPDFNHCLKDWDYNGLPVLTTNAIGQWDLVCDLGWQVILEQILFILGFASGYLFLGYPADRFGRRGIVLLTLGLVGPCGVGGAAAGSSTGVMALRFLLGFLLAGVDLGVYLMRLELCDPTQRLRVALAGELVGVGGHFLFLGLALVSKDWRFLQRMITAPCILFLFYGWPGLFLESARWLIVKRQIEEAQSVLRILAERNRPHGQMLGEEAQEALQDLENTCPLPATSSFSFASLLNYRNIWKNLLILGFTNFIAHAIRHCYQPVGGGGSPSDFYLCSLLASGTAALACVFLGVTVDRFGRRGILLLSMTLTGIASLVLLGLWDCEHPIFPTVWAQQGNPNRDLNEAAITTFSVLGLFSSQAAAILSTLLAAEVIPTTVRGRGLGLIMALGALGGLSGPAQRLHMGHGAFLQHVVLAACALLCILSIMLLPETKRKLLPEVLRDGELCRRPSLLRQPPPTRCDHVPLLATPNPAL
Alexa Fluor 546-transferrin from human serum, sequence (P02787 20-698): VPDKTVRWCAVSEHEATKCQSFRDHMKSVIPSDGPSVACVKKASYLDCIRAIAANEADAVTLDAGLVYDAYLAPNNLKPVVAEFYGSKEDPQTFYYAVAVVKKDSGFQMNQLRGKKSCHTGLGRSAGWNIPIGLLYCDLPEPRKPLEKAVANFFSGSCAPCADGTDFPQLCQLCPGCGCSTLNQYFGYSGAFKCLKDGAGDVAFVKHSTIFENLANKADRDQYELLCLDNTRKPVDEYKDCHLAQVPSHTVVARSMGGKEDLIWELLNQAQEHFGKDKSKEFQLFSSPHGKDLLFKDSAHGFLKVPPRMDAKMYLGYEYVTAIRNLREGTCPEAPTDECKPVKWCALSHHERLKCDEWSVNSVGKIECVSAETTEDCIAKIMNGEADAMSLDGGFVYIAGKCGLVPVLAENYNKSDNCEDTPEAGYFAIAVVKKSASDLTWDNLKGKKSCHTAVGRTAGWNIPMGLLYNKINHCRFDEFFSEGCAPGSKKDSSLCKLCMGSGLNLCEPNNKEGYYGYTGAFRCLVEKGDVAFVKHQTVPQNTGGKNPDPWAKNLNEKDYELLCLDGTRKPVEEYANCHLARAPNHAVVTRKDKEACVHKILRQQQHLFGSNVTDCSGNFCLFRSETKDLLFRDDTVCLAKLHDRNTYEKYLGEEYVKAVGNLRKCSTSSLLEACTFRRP
Alexa Fluor 546-labelled metallothionein (rabbit apo-MT-2), sequence (P18055 whole entry): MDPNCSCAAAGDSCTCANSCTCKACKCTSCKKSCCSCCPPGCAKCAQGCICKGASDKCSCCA
hNGAL (lipocalin-2), sequence (P80188 21-198): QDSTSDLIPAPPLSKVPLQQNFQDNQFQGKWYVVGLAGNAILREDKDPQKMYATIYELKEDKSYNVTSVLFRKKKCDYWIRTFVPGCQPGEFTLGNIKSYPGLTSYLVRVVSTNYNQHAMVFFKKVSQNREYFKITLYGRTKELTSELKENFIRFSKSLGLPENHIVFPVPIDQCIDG

internalization of A488-PC3 (up to 5.6 µM, 24 h) by colon-like Caco-2 BBE cells, two-site fit, first app KD [1]: 90 nM
inhibition by 500 pM apical hNGAL of the apical decrease of 700 nM A488-PC3 in colon-like Caco-2 BBE Transwell monolayers (AUC over 8 h) [2]: 25%
EC50 with 500 pM hNGAL [3]: 225 nM
pEC50 [4]: 7.73
Substance: Alexa Fluor 488 (A488)-PC3 (phytochelatin PC3) (peptide)

inhibition by 500 pM apical hNGAL of the apical decrease of 700 nM A546-MT in colon-like Caco-2 BBE Transwell monolayers (AUC over 8 h) [2]: 40%
Substance: Alexa Fluor 546-labelled metallothionein (rabbit apo-MT-2) (from UniProt P18055 1-62) (natural protein)

inhibition by 500 pM apical hNGAL of the apical decrease of 700 nM A546-Tf in colon-like Caco-2 BBE Transwell monolayers (AUC over 8 h) [2]: 25%
Substance: Alexa Fluor 546-transferrin from human serum (from UniProt P02787 20-698) (natural protein)

Substance: hNGAL (lipocalin-2) (from UniProt P80188)
pKd (hNGAL-R (Homo sapiens)): 10.04
